Tested on: Escherichia coli TOP10
Test: shrunken log2 fold change of peptide-encoding DNA abundance (4.5 h post-induction vs induction); higher = less antimicrobial activity (less host growth inhibition)
Settings: time post-induction: 4.5 h; library: site-saturation at positions 5, 18, 19, 20
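Note: peptides expressed intracellularly from a pBAD plasmid library in pooled LB shake-flask culture, induced with 0.3% L-arabinose, DNA abundance read by NGS, three biological replicates, DESeq2 with apeglm shrinkage.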

Sequence	shrunken log2 fold change
RRIRMRPPRLPRPRPRPRYCPRP	-0.164
RRIRFRPPRLPRPRPRPTWLPRP	0.299
RRIRNRPPRLPRPRPRPWIVPRP	0.0724
RRIRNRPPRLPRPRPRPRHNPRP	-0.403
RRIRCRPPRLPRPRPRPRPYPRP	-0.0927
RRIRWRPPRLPRPRPRPDAGPRP	0.485
RRIRGRPPRLPRPRPRPTNRPRP	0.258
RRIRCRPPRLPRPRPRPQKPPRP	0.0368
RRIRWRPPRLPRPRPRPRWNPRP	-0.0693
RRIRRRPPRLPRPRPRPSNTPRP	-0.172
RRIRYRPPRLPRPRPRPTMAPRP	0.12
RRIRDRPPRLPRPRPRPKSIPRP	0.114
RRIRDRPPRLPRPRPRPELDPRP	1.47
RRIRDRPPRLPRPRPRPEPQPRP	0.0781
RRIRCRPPRLPRPRPRPTYLPRP	-0.292
RRIRKRPPRLPRPRPRPCYYPRP	-0.48
RRIRHRPPRLPRPRPRPFPNPRP	-0.0913
RRIRTRPPRLPRPRPRPVVVPRP	0.0543
RRIRRRPPRLPRPRPRPTTTPRP	0.34
RRIRERPPRLPRPRPRPICQPRP	0.00158
RRIRQRPPRLPRPRPRPWRGPRP	-0.0544
RRIRDRPPRLPRPRPRPTHLPRP	-0.175
RRIRLRPPRLPRPRPRPCAAPRP	0.236
RRIRDRPPRLPRPRPRPSEHPRP	0.12
RRIRTRPPRLPRPRPRPKASPRP	-0.0647

Sequence	shrunken log2 fold change
RRIRWRPPRLPRPRPRPLLQPRP	0.2
RRIRGRPPRLPRPRPRPHQQPRP	0.101
RRIRIRPPRLPRPRPRPTHHPRP	0.155
RRIRDRPPRLPRPRPRPPACPRP	0.0727
RRIRNRPPRLPRPRPRPCMYPRP	-0.0592
RRIRLRPPRLPRPRPRPRDRPRP	3.43
RRIRERPPRLPRPRPRPNDNPRP	-0.882
RRIRERPPRLPRPRPRPAGHPRP	0.0849
RRIRARPPRLPRPRPRPYSCPRP	-0.43
RRIRYRPPRLPRPRPRPHHFPRP	-0.288
RRIRARPPRLPRPRPRPIFTPRP	0.165
RRIRRRPPRLPRPRPRPEEIPRP	-0.0243
RRIRLRPPRLPRPRPRPHEFPRP	-0.0833
RRIRARPPRLPRPRPRPYPHPRP	-0.0654
RRIRYRPPRLPRPRPRPCNSPRP	-0.168
RRIRYRPPRLPRPRPRPEYTPRP	-0.542
RRIRCRPPRLPRPRPRPGFWPRP	0.226
RRIRRRPPRLPRPRPRPWKIPRP	-0.11
RRIRGRPPRLPRPRPRPLRNPRP	1.03
RRIRLRPPRLPRPRPRPGSDPRP	-0.149
RRIRRRPPRLPRPRPRPSSEPRP	-0.322
RRIRTRPPRLPRPRPRPFSKPRP	0.0087
RRIRDRPPRLPRPRPRPPCFPRP	0.35
RRIRVRPPRLPRPRPRPCGEPRP	-0.256
RRIRDRPPRLPRPRPRPMIQPRP	-0.103
